Measured values taken from the supplement of paper PMC12636428.

Test system: Saccharomyces cerevisiae
Experiment: transcriptional activation domain activity (GFP:mCherry ratio, weighted mean of sorted bins, harmonized to initial dataset scale) (arbitrary fluorescence ratio units); higher = stronger transcriptional activation
Details: beta-estradiol 1 µM; induction time 4 h
Procedure, shortened: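 Activation activity, the read-weighted mean of bin median fluorescence averaged across barcodes, was linearly mapped onto the scale of the initial dataset. It was measured for barcoded protein tiles fused to an estradiol-inducible synthetic transcription factor at URA3 in GFP-reporter yeast diploids. Cultures diluted 1:5 into SC with 1 uM beta-estradiol were held 4 hours at 30 °C, sorted into 8 bins by GFP:mCherry ratio, and barcode-sequenced, and tiles under 50 reads were discarded.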

Sequence	transcriptional activation domain activity
PSRPATPPRSSSAPTGISPNPRTRTCSSASCCASSRSPPSTTSPPTPPAAAAP	51100
TWKVIGLVWRCPELTEYLNKVILTIIIIRSESHFDSSIAALNESCLTPYGTVD	28800
YMGSVNLVHYYGVRTFSFILLGPCLTLVVVYRVLALFQSANQQFYILVLAYIA	36200
VQALASGDFDAGDGGRTTRPLFRKQKGASLFFVTSVCDTVCLAWTVVVHGHRQ	20600
VKFRFLTYSRWLVLILYVFSWSFTIISMLLVTTNNANFTSCFLSIMVCDIFYS	71700
RKERKREKESERRERHHRRSQTHSSDEARERHRDGKTKQSRSSDRDPRKTRAR	30800
TKGEFHKIAVIFTSTVVAGMVIMYFWILKQIPFMVGLVVWGWVGISQGFFAVN	55800
HGTLCDIYLVIILKCCGDDDNSVSLVEGIALAPSSARSNAFERVGKFGGGPES	46900
VDNLLLPLAIHHRFLSYCLYIIGFVYFVYSLEKGHYKFQFTQFCITHMTLFLV	50900
YFLAKMLLVWIVLALQTCEVSFSFVDTEHAYRGGVLRFVETLVKWAMEQNMSH	45400
ASASASASRHKKDKDRKKKHKEKDGKSSKHKKHKSSSRRSRSRSRDKDRHGDR	33300
GFVDVTEQVCGWPMGPWSDDEKLKELGRWNLRNWEEGMEGWILMLYTRFLGWS	69700
CFKHIGLYWAERGITLGRLEQLVGCHSLFSALERQASLRAWSILGMLLTIVWF	61400
ARDMLEDTFLIPKNLYAVHGPGISVKALEIADALVDVVNQYDQNAESEAWNFL	112000
PKKLQEDTELETEQENQMLNQVGNINYTHDFSLSHEIDDLIRELFGVGTPQKL	65300
ELGAIEESKLCIVLLGTFRLLSFDCRTFAKYVRPLSLERLFNHTSRIVRLLAI	44000
FVCVASAIGGVGYLLLLTVAENVHVRYFATFCIVSGTYTTIGIVIAWFAHNLG	48700
MRAAMDICVLIKMPCPLLKHTPFFTCAVTMAAVVYLSYWSFIATETGDDVIRE	46700
IAMQPGEHQYDFEAHDFGLDLSDDLITQLEAGIGEYAWGSMPMDGNFWDQLYW	127000
LKEKSLRILILNGLVRLIWTYLYRCQESPSTTTTKLENLLKYLFPPNRTSVYP	44900
MGRVVGVGSFYVWICHFFYIFSFFFSPMMNWTGSGLVGCVMALLYFILSFSFS	46200

Sequence	transcriptional activation domain activity
MVLLTTLSKKTTIVTVLCSTVINMGKFGFTRHNHRCMRTGALLCLLLFLAYHF	42800
MCINMYFWKVFFMWTLIFFGLSYIPLSFPGMSYFCLLQHKVFLIILGNHFLRF	56800
EEEEEEEGGETKKKRRRAASAAAKGRKGGRKSTASEEDEVVGGEESENRASKK	25400
LVHGRWSYQRVADMHANFFYKNVIWTFGLFWYLPFNSFDATYLYHYTFILLCN	61000
KILLNHNYFYFRMLCHHQTCNIYNLYHQIFLIFLQIIVSILLSLRIIALYLGN	66400
PLLTLNGLNCFFSLIYLINLLYSLKLFLQYFFFCLPFHIFILLMHSFLYYIFY	62400
HGPMFHFSISNWVEGAKLAGHGNPTGHNPELILNNFRTPLGLLTAHLFKTMFP	52200
MSSPEVNSSQPASSPRKARRYGFACASCKARKVKCSGDQPVCRACRRANESCV	24300
MCCEAEWKREVVQDHKFDFINVSEFHRTDILTRLKYVWKYILILKAFAVMGLD	53700
DGYRNDNRGRNRRGNGRSRSPRGGKDSRNGTPPLTEDERDKRTIFVQQLAARL	57100
LFASMIPSMRDLIVIVLTLPNHATVIELQHYALEIAEQLTRFWFLRAENPLYR	62600
LPKDANLCFGKDFLAMYFYCTAVPTLFMFMVSERLYNALMQLAVFLLLCILHL	65000
GEASAEKTKKRSRASKGGEDGKKKKSKEARVESNGANGHAGGDAAAAAAAEQQ	30400
LVWLDNWPAGLKLNTELSRFLCLCFMSLTDIWGNLLAPYLPLILRIIGIMGRT	57200
VDDSDDDGDEEGGKNEESITKKGVRLLDYACGTGLVSRVSHIPSIAGASSRSL	46600
AGDMGIERTGVDLHNGKHPLNALLKAIVGKLHLPLYFHWGPLNIGSCFSIPYA	50300
LVGLIGTLVAEPGLGADRFLLCFLFLSYYTLLTPSNLLVGIFWLVFFVLQLGY	39700
GVNAIGRRSSFQDVEAGKGGLIVPLRHLPPRGEDAGLVLQVHLNRAVSKLARM	65200
NFDWWAKYNCESLRDAVIGFLTRDCLDSRVGYFRSVVRWIGCRLYFGLLIIFF	72700
MCEGDFCVFFCVCVCVCVCLCVLFCFLFWFLFWWLLFFFLVMLFLAVGVFVYI	35400
LLRFSLLLMFPWLVCLVSCFPCFPLLLPTSCATRFRFLHPFLTVSLLSLLFLC	56800

Sequence	transcriptional activation domain activity
IEDQTKYVTQAYLAATRIVTIISKLVETRHLIELPIYIRQSVTYAVLILFRLH	56400
PKRGRGRPPKDPAAKAAAAAAAAEAEANGEKKPGRGRPRKNPVPSGEGGEAVP	19600
KGKGRREGGEGGEEREGNRERKRGRGREGKGGKERGNGRGKEGQRKEEREGKG	33500
DARRLLSCVRMGFAFYASGCMSTSLILFFSFCLLLPPILTGYQILWLLCIILP	68400
AVLSLLCSLLNTTLKYNPASWRVPYDHVVFKDPKQILVTYCLQLLLVLILYPI	37500
PVKKLYLLVQYIQDLGRVCGIPVSPLCCVQALQAKLGPIAQACVSARIWARWR	67400
PMRLHVDHVHVVGRPFLWYIIVAMCDNVTHVVLSFSGLTYYTTSRWFESIPYR	61200
LWGHVVMEFCCWDFVRRASGLDSILLLLVYIFSSLPYFFFVLFVCHIAILLLT	34500
GAAASPPPNPDGGKPRKRKGPKEKGGEGNAAARRDAGAGAGAGAARSGSAAAA	27100
CIGAMVLIVLWAGGVCILVLVMCIPLEGVWDRRVNAKCIPHMTVMWYFNGVFN	62900
MQNKIVQALNWVCVDLNPPLTSFYFSPFFSFFPTLSSCFNTPLFFFLFSSFFF	61800
MPYKKGHFVWILVYAIAVQSGNVMKKRVGVVTLVLKMPSRKILPPWSTLVCKT	47300
NLDFFDFENSFGDLWNMDEFYGDVAWDLSSDPPLDPLFIGELYSASGQYGDLQ	159000
MADTTDPPAPRKRGRPPKNKEGGATAKPVTLGPDGLPRKRGRPRKNPVVEVAT	20300
MAMVRCMDLYNLDGNGMGKFYTWQFFPFFRFWFLPVCMLLLPFVLVSCLAFFI	58400
AWVLSLFLSFFGIGLVLGSGIWDLGFGLVFLFLVFSFFWGWFWVVLCVVYVDR	33800
MVQCASTECSNEGVSQCGRCKQRFYCGAECQQKDWPAHKKNCKRPNAPPPQMS	17500
GERGRGGEEERRGRGRGRGREEREREKERRERERRRRREEEEERGEEERRGRR	29400
AGDAFGAVESVKSASDIMSPVSGEVVEANVALKDKPALINRSPEEEGWIVRVR	52900
MFMSTLLLVFIHYGWAFFLGCCLWCFVISLCFWYVKLWLLVGCYILVLCDVAR	37400
VRYHVKNSPISGWVYEAKHVSDILATNTLLARIVIAKVQDEQRLVHLLQCLPI	68800

Sequence	transcriptional activation domain activity
MFTGTLWLAFFLDCCLWWYMMFLCFWYEACLHVLLLGFHVYCLLWCMILSLSL	58200
NGGGEQPKGGRGGKSEGGAGNDQGRTNNRGRGDRRGGRGGRDNRGGRGGGSRD	< 6570
MPDVWLSWLVLSFAPSPPFHHFLWFWFCLIAWFIFFRPITWTFDTLFWFLFLP	43400
NLLSKELLMPAVSELNEYLDLFKNNFLPHFPIIHPSLLDLDLDSLQRYTNEDG	48900
KEKEKQERDARRREKEGAAAAAAGEKRKVEEGSAGGEAVKKAKVGAAAAAVAA	47800
MSGVGKLYRMGCWHGSHLPFIYFGHFILPFLLCLRPILSSVFFIYFFHLLCFF	47000
ICIPLPFQTLVCSHIVLTPLFYPLFCTPLDIFYVSNYSCLVLVLSLPFHFFLH	39400
ANHQIYLDWWYTWCLAYFMDTHRDVCIVLKKSLKWVPIFGWAMHQFFNFIFLA	41800
SRSGGGNGKPAGSGKNGSSQLKEVASRSRRRGDSDDDDRKGGSTRSGGGSRKV	34000
LFEIDQRLGLLVPRNGINTSLVILKVIAKLLEKASIYNHFTLGIVWLRKSILV	49900
FVGIRDRTTFLLFTSAWTVVFSLLFVLLFMHSASTGSPLTSVASHFVVFLLTW	56900
PLVVDFPQAVEYFPEMALKYMMCWLSRFDLLPGERLGCRVLAAFIHLTIHRVS	57200
AESQSSRATHTRKRAKQACRQCNARRVRCNVAESQPCANCRSSGSACELLPSK	26200
HDDSFIESEEWLSKFIMDSQIDNDLKLNINHFNDIGFNNLHPQNPTTHSEPRN	117000
SEDERPRGGLKGRKGKKRVEREETSGGSDESSDEEGKRGKAKAGGKREVRTRS	31900
MALKAREELEEIYGMPVIYIPVFISCMHRINAVLLSLGNFLLISGAYLRSSFV	53200
WKATKYLIGLWIQCFRDRGLIGPVGYRGHVHCVVRFCLCLIPKSHWQTIIVVT	63500
LKALQLGCYNYFLLGGSCVSGPVGLLAGIIRQPLVLFYHFFSVALYAIWLRVA	81200
TCRHSSPHVWWLIFGVLCIMYMMVLEVLLLGFVVLVLAPLVFIFWNLFLICIG	52700
MVLRYRLSRSFPTLFIHVQLVLQSLRMGQVSLCMVVQIVWEYIYFWLLGNIAW	65600
